Blank lines part the entries; values can stand above or below the substance they belong to.
Columns and labels:
[1] = target: His6-E6AP ligase (full-length, baculovirus-expressed) (human) (UniProt Q05086); assay: non-competitive inhibition with respect to [UbcH7]o of His6-E6AP chain formation
[2] = target: His6-E6AP ligase (full-length, baculovirus-expressed) (human) (UniProt Q05086); assay: concentration dependence of inhibition of E6AP-catalyzed polyubiquitin chain formation
[3] = target: GST-E6AP ligase (wild-type, bacterially expressed fusion protein) (human) (UniProt Q05086); assay: inhibition of GST-E6AP-catalyzed 125I-polyubiquitin chain formation, nonlinear hyperbolic regression
[4] = target: GST-E6AP ligase (wild-type, bacterially expressed fusion protein) (human) (UniProt Q05086); assay: calculated from the Ki of inhibition of chain formation
[5] = target: GST-E6AP ligase (wild-type, bacterially expressed fusion protein) (human) (UniProt Q05086); assay: inhibition of GST-E6AP-catalyzed 125I-polyubiquitin chain formation
[6] = target: His6-E6AP ligase (full-length, baculovirus-expressed) (human) (UniProt Q05086); assay: non-competitive inhibition with respect to [UbcH7]o of E6AP chain formation
[7] = target: His6-E6AP ligase (full-length, baculovirus-expressed) (human) (UniProt Q05086); assay: activation kinetics of His6-E6AP-catalyzed 125I-polyubiquitin chain formation (non-essential activator, double reciprocal plot)
[8] = target: His6-E6AP ligase (full-length, baculovirus-expressed) (human) (UniProt Q05086); assay: cell-based or functional assay
GST-E6APR626A (human) = GST-E6APR626A (human) (UniProt Q05086); assay: cell-based or functional assay
Chain of GST-E6APR626A (human) (Q05086 other isoform, or with tags, fused parts or gaps): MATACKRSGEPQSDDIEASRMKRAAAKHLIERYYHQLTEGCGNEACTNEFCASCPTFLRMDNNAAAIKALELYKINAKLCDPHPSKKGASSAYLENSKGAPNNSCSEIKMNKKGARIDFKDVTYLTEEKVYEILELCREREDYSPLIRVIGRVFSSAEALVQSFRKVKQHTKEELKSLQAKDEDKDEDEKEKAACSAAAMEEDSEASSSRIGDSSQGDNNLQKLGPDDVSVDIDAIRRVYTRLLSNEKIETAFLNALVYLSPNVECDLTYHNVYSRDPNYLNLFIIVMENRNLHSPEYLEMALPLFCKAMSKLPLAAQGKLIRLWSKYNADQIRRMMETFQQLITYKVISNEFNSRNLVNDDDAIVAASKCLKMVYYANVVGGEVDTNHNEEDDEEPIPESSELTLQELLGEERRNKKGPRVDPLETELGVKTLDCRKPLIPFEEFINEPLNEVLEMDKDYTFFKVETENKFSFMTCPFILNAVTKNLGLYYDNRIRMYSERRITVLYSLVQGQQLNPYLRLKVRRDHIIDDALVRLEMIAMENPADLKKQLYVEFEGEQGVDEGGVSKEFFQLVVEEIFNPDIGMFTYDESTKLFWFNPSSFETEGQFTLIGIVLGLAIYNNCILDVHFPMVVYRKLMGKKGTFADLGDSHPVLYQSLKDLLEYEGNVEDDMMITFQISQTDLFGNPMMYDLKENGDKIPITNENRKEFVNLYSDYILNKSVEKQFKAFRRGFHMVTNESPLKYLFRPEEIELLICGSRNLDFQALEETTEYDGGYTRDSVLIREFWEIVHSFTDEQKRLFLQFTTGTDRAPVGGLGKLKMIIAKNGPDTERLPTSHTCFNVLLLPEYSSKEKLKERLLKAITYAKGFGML

GST-E6APY533A (human) = GST-E6APY533A (human) (UniProt Q05086); assay: cell-based or functional assay
Chain of GST-E6APY533A (human) (Q05086 other isoform, or with tags, fused parts or gaps): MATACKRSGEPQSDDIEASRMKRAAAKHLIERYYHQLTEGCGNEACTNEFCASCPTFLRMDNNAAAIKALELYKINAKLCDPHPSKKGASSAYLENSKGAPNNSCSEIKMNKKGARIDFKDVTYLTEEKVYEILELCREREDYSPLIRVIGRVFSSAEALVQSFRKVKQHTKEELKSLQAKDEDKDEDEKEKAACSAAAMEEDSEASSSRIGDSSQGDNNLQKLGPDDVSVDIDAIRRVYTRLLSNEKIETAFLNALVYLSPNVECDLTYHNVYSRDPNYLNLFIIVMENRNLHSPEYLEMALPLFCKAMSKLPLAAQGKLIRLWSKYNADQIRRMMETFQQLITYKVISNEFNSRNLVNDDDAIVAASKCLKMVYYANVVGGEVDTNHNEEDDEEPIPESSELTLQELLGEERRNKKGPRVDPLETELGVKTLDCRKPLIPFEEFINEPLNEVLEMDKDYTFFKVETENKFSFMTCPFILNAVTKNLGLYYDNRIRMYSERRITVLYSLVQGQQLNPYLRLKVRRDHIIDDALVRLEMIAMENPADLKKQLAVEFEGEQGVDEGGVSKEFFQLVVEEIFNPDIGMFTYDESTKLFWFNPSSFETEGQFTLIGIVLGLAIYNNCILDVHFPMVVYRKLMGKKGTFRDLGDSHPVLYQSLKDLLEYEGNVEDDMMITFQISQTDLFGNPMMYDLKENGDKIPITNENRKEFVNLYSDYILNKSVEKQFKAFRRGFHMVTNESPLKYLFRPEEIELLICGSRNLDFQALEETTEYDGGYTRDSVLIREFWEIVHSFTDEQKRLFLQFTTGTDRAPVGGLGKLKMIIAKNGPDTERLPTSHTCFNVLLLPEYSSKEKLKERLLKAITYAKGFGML

Chain of GST-E6AP-HectC820A (Q05086 473-875 C843A): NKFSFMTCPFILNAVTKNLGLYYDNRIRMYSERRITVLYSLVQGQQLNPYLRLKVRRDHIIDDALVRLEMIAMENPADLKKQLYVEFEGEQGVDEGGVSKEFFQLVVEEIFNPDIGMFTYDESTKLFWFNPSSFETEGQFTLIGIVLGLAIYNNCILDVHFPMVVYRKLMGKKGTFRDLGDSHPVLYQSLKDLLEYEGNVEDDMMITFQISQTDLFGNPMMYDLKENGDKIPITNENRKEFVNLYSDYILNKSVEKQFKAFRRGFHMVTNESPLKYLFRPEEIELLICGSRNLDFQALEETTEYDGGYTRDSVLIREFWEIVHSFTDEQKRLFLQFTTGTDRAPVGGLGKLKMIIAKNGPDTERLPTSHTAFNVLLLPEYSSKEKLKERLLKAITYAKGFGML
Chain of E6AP-HectC820A (thrombin-processed) (Q05086 473-875 C843A limits assumed): as the sequence (Q05086 473-875 C843A) above

- Ki [3]: 19 µM
- ΔGbinding [4]: -6.4 kcal/mol
Substance: E6APΔ495 (thrombin-processed) (from UniProt Q05086 1-495)

- Ki [5]: 31 µM
Substance: GST-E6AP-HectC820A (from UniProt Q05086 450-852)

- Ki [5]: 27 µM
Substance: E6AP-HectC820A (thrombin-processed) (from UniProt Q05086 450-852)

More lines, now with the values behind:

Substance: E6(HPV16)Δ91 N-terminal domain (from UniProt P03126 1-91)
- Ki [1]: 6 µM
- Ki [2]: 4 µM

Substance: E6(HPV16)Ct C-terminal domain (from UniProt P03126 89-158)
- Ki [6]: 4 µM

Substance: HPV16 E6 protein (recombinant, full-length) (from UniProt P03126 1-158)
- Kd [7]: 0.0015 µM
- stimulation in E6AP ligase activity at saturating E6 protein [8]: 14 fold
- increase in rate of 125I-polyubiquitin chain formation with 20 nM E6 (GST-E6APR626A (human)): 13 fold
- increase in rate of 125I-polyubiquitin chain formation with 20 nM E6 (GST-E6APY533A (human)): 8 fold

Substance: GST-E6APΔ495 (from UniProt Q05086 1-495)
- Ki [3]: 12 µM
- ΔGbinding [4]: -6.7 kcal/mol

Source: US20150210998A1
